{"source": "patent US20030165995A1", "about": "(Takeda / Millennium, published 2003)", "binders": {"B1": {"name": "purified recombinant His-tagged SExCkine (entire predicted extracellular domain, amino acid residues 1 to 202 of SEQ ID NO:4) (ligand)", "chain": "NEGSVTGSCYCGKRISSDSPPSVQFMNRLRKHLRAYHRCLYYTRFQLLSWSVCGGNKDPWVQELMSCLDLKECGHAYSGIVAHQKHLLPTSPPISQASEGASSDIHTPAQMLLSTLQSTQRPTLPVGSLSSDKELTRPNETTIHTAGHSLAVGPEAGENQKQPEKNAGPTART", "modifications": "heavily glycosylated; iodinated with 125I where used as tracer", "notes": "Expressed in 293T cells, purified on wheat germ agglutinin and NiNTA; also called purified recombinant SExCkine (CXCL16); recombinant His-tagged SExCkine protein; not shown: C-terminal His tag from the pEF-His vector"}}, "key": {"[1]": {"target": "T1, CCR7 expressed on transfected L1.2 cells (UniProt P32248 25-378, limits assumed)", "T1 construct": "whole, on cells", "T1 sequence (looked up)": "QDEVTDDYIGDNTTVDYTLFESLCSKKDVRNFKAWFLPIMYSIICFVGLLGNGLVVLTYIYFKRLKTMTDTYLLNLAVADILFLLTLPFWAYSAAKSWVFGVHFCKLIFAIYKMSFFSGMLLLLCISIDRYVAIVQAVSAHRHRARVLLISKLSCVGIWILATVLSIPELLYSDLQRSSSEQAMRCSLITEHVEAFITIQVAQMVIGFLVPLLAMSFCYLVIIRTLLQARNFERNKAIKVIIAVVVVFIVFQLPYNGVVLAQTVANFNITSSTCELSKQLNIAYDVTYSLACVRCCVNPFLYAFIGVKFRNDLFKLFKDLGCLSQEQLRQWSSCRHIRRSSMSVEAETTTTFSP", "assay": "125I-labeled SExCkine binding to receptor transfectants"}, "[2]": {"target": "T2, CCR6 expressed on transfected L1.2 cells (UniProt P51684 1-374, limits assumed)", "T2 construct": "whole, on cells", "T2 sequence (looked up)": "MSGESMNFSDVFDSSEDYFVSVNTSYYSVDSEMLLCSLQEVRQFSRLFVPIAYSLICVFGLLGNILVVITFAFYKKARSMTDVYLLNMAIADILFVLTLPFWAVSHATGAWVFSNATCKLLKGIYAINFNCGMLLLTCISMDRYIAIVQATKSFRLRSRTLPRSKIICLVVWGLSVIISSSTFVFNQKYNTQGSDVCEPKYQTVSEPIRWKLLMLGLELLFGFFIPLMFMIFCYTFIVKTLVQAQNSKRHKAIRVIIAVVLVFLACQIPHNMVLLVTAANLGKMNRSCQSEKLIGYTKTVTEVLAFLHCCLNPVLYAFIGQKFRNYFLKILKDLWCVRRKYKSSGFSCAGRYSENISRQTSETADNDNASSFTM", "assay": "125I-labeled SExCkine binding to receptor transfectants"}, "[3]": {"target": "T3, human Bonzo with N-terminal hemagglutinin (HA) epitope, expressed on transfected L1.2 cells (Bonzo/L1.2 cells) (human, UniProt O00574 1-342)", "T3 construct": "also called CXCR6; STRL33", "T3 sequence": "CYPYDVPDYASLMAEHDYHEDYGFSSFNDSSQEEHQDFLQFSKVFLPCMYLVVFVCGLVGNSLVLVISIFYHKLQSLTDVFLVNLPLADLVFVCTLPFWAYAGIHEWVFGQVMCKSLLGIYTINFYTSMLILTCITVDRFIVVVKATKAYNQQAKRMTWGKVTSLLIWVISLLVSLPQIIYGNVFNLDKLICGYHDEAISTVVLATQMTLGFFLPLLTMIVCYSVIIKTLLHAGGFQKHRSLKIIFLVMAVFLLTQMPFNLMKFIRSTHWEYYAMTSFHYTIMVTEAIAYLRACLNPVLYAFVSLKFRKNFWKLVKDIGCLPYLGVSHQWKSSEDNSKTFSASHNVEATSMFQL", "assay": "Scatchard analysis of 125I-labeled SExCkine binding to Bonzo/L1.2 cells", "method": "(§1) The amount of ¹²⁵I-labeled SExCkine (CXCL16) that bound to Bonzo/L1.2 cells was determined by scintillation counting, and % inhibition of binding (0% inhibition is the amount of binding in the absence of unlabeled SExCkine (CXCL16)) was calculated. […] FIG. 43B depicts the Scatchard analysis of the binding data.\n(§2) Exponentially-growing Bonzo/L1.2 transfectants were counted on the day of the assay and were resuspended in binding assay buffer (BAB) (10 mM HEPES/1 mM CaCl₂/5 mM MgCl₂/0.5% BSA/0.05% Na Azide) at a density of 2.5×10⁶ cells/mL. Purified recombinant SExCkine (CXCL16) was labeled with I¹²⁵ using a sodium iodine method (Amersham, Arlington Heights, Ill.) and was diluted to 4 nM in BAB. Cold (unlabeled) SExCkine (in PBS at 5.3 μM) was diluted for competition in BAB to 0.4 nM, 2 nM, 4 nM, 20 nM, 40 nM, and 400 nM. […] For calculation of total I¹²⁵ input, 50 μL of cells was added to 25 μL of I¹²⁵I-labeled SExCkine and 25 μL BAB. All tubes were incubated for 1 hour at room temperature, after which time the cells were spun down at 3500 rpm and washed five times in BAB+0.5 M NaCl. After the final wash, the cell pellet was resuspended in 100 μL of wash buffer and the I¹²⁵ counts were calculated using a Cobra II auto-gamma scintillation counter (Packard, Downers Grove, Ill.) along with the total input sample. Binding data was calculated using a program written in Excel."}, "[4]": {"target": "T3, human Bonzo with N-terminal …", "assay": "competition with 1 nM 125I-labeled SExCkine for binding to Bonzo/L1.2 cells, gamma counting", "method": "as §1, §2"}}, "data": [{"binder": "B1", "values": [{"measurement": "binding result", "setting": "[1]", "result": "no binding"}, {"measurement": "binding result", "setting": "[2]", "result": "no binding"}, {"measurement": "Kd", "setting": "[3]", "result": 1, "unit": "nM"}, {"measurement": "IC50", "setting": "[4]", "result": 1, "unit": "nM"}]}]}
